Test results reported in article PMC3511050 (FEBS letters, 2012).

Key:
SufE (Escherichia coli) = SufE (Escherichia coli) (UniProt P76194); assay: SPR; details: cited from earlier work
SufE (E. coli), P76194 = biological target: T1, SufE (E. coli), P76194; assay: cross-linking; details: remark: other sources report otherwise
T1 chain: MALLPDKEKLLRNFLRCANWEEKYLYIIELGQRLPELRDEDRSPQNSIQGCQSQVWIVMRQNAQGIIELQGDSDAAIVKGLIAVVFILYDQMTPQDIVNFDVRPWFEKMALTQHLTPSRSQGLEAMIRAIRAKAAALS

[1] = biological target: T2, SufS cysteine desulfurase (E. coli, UniProt P77444 1-406); assay: inhibition of enzyme activity
T2 sequence (looked up): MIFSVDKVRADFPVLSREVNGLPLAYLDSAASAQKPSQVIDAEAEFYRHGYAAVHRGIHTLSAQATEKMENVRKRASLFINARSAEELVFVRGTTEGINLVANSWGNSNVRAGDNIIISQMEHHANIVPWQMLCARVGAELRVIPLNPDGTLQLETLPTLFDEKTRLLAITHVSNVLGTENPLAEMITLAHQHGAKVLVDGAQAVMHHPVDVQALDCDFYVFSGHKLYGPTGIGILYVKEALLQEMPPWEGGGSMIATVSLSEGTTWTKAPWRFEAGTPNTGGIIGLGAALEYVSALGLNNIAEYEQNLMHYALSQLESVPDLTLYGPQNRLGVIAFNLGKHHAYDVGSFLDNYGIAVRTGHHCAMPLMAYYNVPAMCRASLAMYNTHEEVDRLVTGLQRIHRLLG

Molecule: SufS (from UniProt P77444)
- Kd (SufE (Escherichia coli)): 360 nM

B1: SufE, P76194 1-138 (natural protein)
chain: T1 chain
- percent of total protein as disulfide-bonded homodimer (with or without H2O2) (SufE (E. coli), P76194): 18%
- stoichiometry N (SufE (E. coli), P76194): 2

B2: SufE where C51 has been covalently blocked with iodoacetamide (natural protein, E. coli, UniProt P76194 1-138, looked up)
chain: T1 chain
modifications: C51 covalently blocked with iodoacetamide
- Ki [1]: 190 nM
